Laboratory results: patent US20110189292A1 (ALLERGAN, published 2011)

Key:
[1] = target: T1, silk fibroin, sericin-extracted, from degummed Bombyx mori silk, dissolved in 9.3 M LiBr and dialysed (Bombyx mori, UniProt P05790 22-5263; P21828 17-262, limits assumed); test: HPLC of 23RGD extracted from silk precipitate; formulation AVLO, against the calculated ratio
T1 construct: also called silk molecules
Description: (§1) The amount of 23RGD bound to silk precipitates was quantified by analyzing lyophilized samples. The 23RGD was removed by incubating the samples for 4 hours in a dissolving buffer, then centrifuging on an Eppendorf 5415C (Eppendorf North America Inc., Westbury, N.Y.) at 16,000 g (RCF) for 30 minutes and the supernatant collected. This supernatant was then centrifuged in identical fashion and the final supernatant collected for HPLC analysis using a PerkinElmer Series 200 (PerkinElmer, Waltham, Mass.). The 23RGD peak areas from each curve were compared against a standard curve. 1-Way ANOVA was used to test for significant differences caused by changing silk concentration, 23RGD concentration, and accelerant volume. A Student's t-test was used to test the significance of differences resulting from altered ethanol concentrations.
(§2) Few of the silk precipitates entrained a molar ratio similar to what was initially calculated (FIG. 23). Four groups, SCVLO, AVHI, RHI, and RLO contained ratios similar to their calculated values of RGD per mole of silk. The six remaining groups contained ratios substantially greater than their calculated values. In the cases of AVLO, BASE, RMED, and SCLO, the RGD quantities were about 2-fold greater than expected. Although not wishing to be limited by theory, this greater observed molar ratio may be indicative of the formation of a RGD bi-layer. […]

[2] = target: T1, silk fibroin, sericin-extracted, from …; test: HPLC of 23RGD extracted from lyophilised silk precipitate; formulation AVLO
Description: as §1

[3] = target: T1, silk fibroin, sericin-extracted, from …; test: HPLC of 23RGD extracted from lyophilised silk precipitate; formulation RHI
Description: as §1

[4] = target: T1, silk fibroin, sericin-extracted, from …; test: HPLC of 23RGD extracted from lyophilised silk precipitate; formulation SCVLO
Description: as §1

[5] = target: T1, silk fibroin, sericin-extracted, from …; test: HPLC of 23RGD extracted from lyophilised silk precipitate; formulation AVHI
Description: as §1

[6] = target: T1, silk fibroin, sericin-extracted, from …; test: HPLC of 23RGD extracted from lyophilised silk precipitate; formulation SCLO
Description: as §1

[7] = target: T1, silk fibroin, sericin-extracted, from …; test: HPLC of 23RGD extracted from silk precipitate; formulation ECLO, against the calculated ratio
Description: as §1, §2

[8] = target: T1, silk fibroin, sericin-extracted, from …; test: HPLC of 23RGD extracted from lyophilised silk precipitate; formulation BASE
Description: as §1

[9] = target: T1, silk fibroin, sericin-extracted, from …; test: HPLC of 23RGD extracted from the rinsed silk gel, against a standard curve
Excerpt: 23RGD-infused gels were studied to quantify the amount of 23RGD bound to the silk-hydrogel device as well as the quantity of free 23RGD which might be rinsed free of the device under relevant conditions. Briefly, samples of 23RGD-infused gel were cast and rinsed according to the methods above, with samples of rinse buffer being collected from each rinse for subsequent analysis by HPLC. Additionally, subsequent to the last rinse, the gel samples were mechanically pulverized by means of a stainless steel stirring rod and the adsorbed 23RGD removed by incubation for 4 hours in a dissolving buffer. This mixture of gel and solvent was then centrifuged on an Eppendorf 5415C at 16,000 g RCF for 30 minutes. The supernatant was collected and centrifuged another 30 minutes at 16,000 g RCF after which time the supernatant was collected in a sample vial for HPLC analysis. Samples of rinse buffer from the first and last rinse were centrifuged in the same fashion after being diluted with the same solvent the gel was extracted with in a volumetric ratio of 1 part rinse buffer to 4 parts solvent. To ensure 23RGD-hydrogel device rinse-exposed surface area was not a limiting factor, the same rinse and extraction process was performed upon devices pulverized after gelation and before rinsing. […]

[10] = target: T1, silk fibroin, sericin-extracted, from …; test: HPLC of 23RGD extracted from silk precipitate; formulation 0.6S 3R 10:1
Description: as §1
Precipitate samples generated at a calculated 10:1 23RGD:silk ratio consistently generated a “correct” molecular binding ratio. In the case of AVHI, this runs contrary to the trend of bound 23RGD concentrations being approximately double the projected values as indicated by AVLO and BASE (about 5:1 and about 9:1, respectively). This might be explained by saturation of the silk with 23RGD in the case of 10:1 23RGD precipitates. […]

[11] = target: T1, silk fibroin, sericin-extracted, from …; test: HPLC of 23RGD extracted from lyophilised silk precipitate; formulation printed as RMED
Description: as §1

[12] = target: T1, silk fibroin, sericin-extracted, from …; test: reading of the HPLC ratios of the silk precipitates
Description: as §1

[13] = target: T1, silk fibroin, sericin-extracted, from …; test: HPLC of 23RGD extracted from lyophilised silk precipitate; formulation printed as RLO
Description: as §1

B1: 23RGD peptide (HOOC-GRGDIPASSKG4SRL6R-NH2) (peptide)
peptide: GRGDIPASSKGGGGSRLLLLLLR
modifications: not fully specified; -NH2 at the Arg end as printed (HOOC-Gly-...-Arg-NH2). An optional variant, SEQ ID NO: 2, is acylated (Ac-) and has D-arginines.
notes: also called 23RDG
B1 was tested, and the “fold of bound RGD over the calculated RGD:silk ratio” value [1] was about 2 fold, the “23RGD:silk ratio bound” value [2] was 5.2 mol 23RGD per mol silk and the “23RGD:silk ratio bound” value [3] was 10.7 mol 23RGD per mol silk. The “23RGD:silk ratio bound” value [4] was 11 mol 23RGD per mol silk, the “23RGD:silk ratio bound” value [5] was 10.5 mol 23RGD per mol silk and the “23RGD:silk ratio bound” value [6] was 9.9 mol 23RGD per mol silk. For the same binder, the “fold of bound RGD over the calculated RGD:silk ratio” value [7] was about 1.5 fold, the “23RGD:silk ratio bound” value [8] was 8.7 mol 23RGD per mol silk and the “23RGD:silk ratio bound” value [9] was 3.35 mol 23RGD per mol silk. The “23RGD:silk ratio bound” value [10] was about 10 mol 23RGD per mol silk, the “23RGD:silk ratio bound” value [11] was 6.95 mol 23RGD per mol silk and the “apparent saturation, 23RGD:silk ratio” value [12] was about 10 mol 23RGD per mol silk. The “23RGD:silk ratio bound” value [13] was 1.1 mol 23RGD per mol silk.
